Columns and labels:
[1] = molecular target: lipidated recombinant human tissue factor (TF) (UniProt P13726)
Target sequence in this assay (P13726 33-295): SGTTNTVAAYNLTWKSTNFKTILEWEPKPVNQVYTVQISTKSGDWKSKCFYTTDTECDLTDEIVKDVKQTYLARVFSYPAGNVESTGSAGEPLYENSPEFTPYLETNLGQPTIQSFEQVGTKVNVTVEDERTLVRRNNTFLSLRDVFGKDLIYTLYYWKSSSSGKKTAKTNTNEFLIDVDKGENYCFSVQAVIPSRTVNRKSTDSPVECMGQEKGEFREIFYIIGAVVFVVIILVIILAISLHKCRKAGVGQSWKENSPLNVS

[2] = molecular target: lipidated recombinant human tissue factor (TF) (UniProt P13726); assay: cell-based or functional assay
Target sequence in this assay (P13726 33-295 limits assumed): as the sequence (P13726 33-295) above

[3] = molecular target: lipidated recombinant human tissue factor (TF) (human, UniProt P13726 33-295, limits assumed); assay: cell-based or functional assay

## recombinant active heparanase GS3 (single chain GS3 active heparanase gene construct comprising the 8 and 50 kDa heparanase subunits)
[1]
  factor Xa level (chromogenic substrate; purified TF, factor VIIa, factor X): Addition of heparanase induced 2 folds increase in Xa level
  thrombin generation (chromogenic substrate; TF, factor VIIa, factor X, prothrombin): Note a 3-fold increase in coagulation activity in the presence of heparanase.

## enzymatically inactive heparanase (double mutant), mutated at Glu225 and Glu343 (from UniProt Q9Y251 36-543) (enzyme)
[2]
  factor Xa generation with conditioned medium of HEK-293 cells (chromogenic substrate; TF, factor VIIa, factor X): 2 fold

## full-length human heparanase (65 kDa) (from UniProt Q9Y251 36-543) (enzyme)
[2]
  factor Xa generation with conditioned medium of HEK-293 cells (chromogenic substrate; TF, factor VIIa, factor X): 2 fold

B1: recombinant active heparanase GS3 (single chain GS3 active heparanase gene construct comprising the 8 and 50 kDa heparanase subunits) (enzyme)
chain: QDVVDLDFFTQEPLHLVSPSFLSVTIDANLATDPRFLILLGSPKLRTLARGLSPAYLRFGGTKTDFLIFDPKKESTFEERSYWQSQVNQDICKYGSIPPDVEEKLRLEWPYQEQLLLREHYQKKFKNSTYSRSSVDVLYTFANCSGLDLIFGLNALLRTADLQWNSSNAQLLLDYCSSKGYNISWELGNEPNSFLKKADIFINGSQLGEDFIQLHKLLRKSTFKNAKLYGPDVGQPRRKTAKMLKSFLKAGGEVIDSVTWHHYYLNGRTATKEDFLNPDVLDIFISSVQKVFQVVESTRPGKKVWLGETSSAYGGGAPLLSDTFAAGFMWLDKLGLSARMGIEVVMRQVFFGAGNYHLVDENFDPLPDYWLSLLFKKLVGTKVLMASVQGSKRRKLRVYLHCTNTDNPRYKEGDLTLYAINLHNVTKYLRLPYPFSNKQVDKYLLRPLGPHGLLSKSVQLNGLTLKMVDDQTLPPLMEKPLRPGSSLGLPAFSYSFFVIRNAKVAACI
[3]
  factor Xa generation at reduced TF levels (absorbance at 405 nm): 3 fold
  factor Xa generation with conditioned medium of HEK-293 cells (chromogenic substrate; TF, factor VIIa, factor X): 2 fold

Reference: US20190219601A1 (RAMBAM MED TECH, published 2019)
